Test results from article PMC4265764 (2014).
Changes are numbered by the printed parent chain. Values belong to the binder of their own block, whether it stands above or below them.

Legend:
[1] = target: T1, Green Fluorescent Protein (GFP) (UniProt P42212 1-238 = GFP, biotin on the avi-tag (in-vivo biotinylation)); assay: SPR
[2] = target: T1, Green Fluorescent Protein (GFP); assay: SPR; remark: listed apart in the source
[3] = target: superfolder GFP (sfGFP) (UniProt P42212 = GFP, biotin (in-vivo biotinylated, in the ELISA)); assay: FP
[4] = target: T1, Green Fluorescent Protein (GFP); assay: FP
[5] = target: T1, Green Fluorescent Protein (GFP); assay: FP; PBS with 0.03% BSA
[6] = target: T1, Green Fluorescent Protein (GFP); assay: FP; PBS with 0.005% Tween-20

Kd [1]: 0.36 nM | koff [2]: 0.000228 s⁻¹ | Kd [3]: 22 nM | Kd [4]: < 5 nM
B1: DARPin 3G124 (designed binder)
chain: DLGKKLLEAARAGQDDEVRILMANGADVNAADDVGVTPLHLAAQRGHLEIVEVLLKYGADVNAADLWGQTPLHLAATAGHLEIVEVLLKNGADVNARDNIGHTPLHLAAWAGHLEIVEVLLKYGADVNAQDKFGKTAFDISIDNGNEDLAEILQ

Kd [1]: 1.1 nM | koff [2]: 0.000797 s⁻¹ | Kd [5]: 76 nM | Kd [6]: < 5 nM | Kd [3]: 96 nM
B4: DARPin 3G61 (designed binder)
chain: MRGSHHHHHHGSDLGKKLLEAARAGQDDEVRILMANGADVNALDEVGWTPLHLAAWGHLEIVEVLLKNGADVNAADIDGYTPLHLAAFSGHLEIVEVLLKYGADVNADDQAGFTPLHLAAIFGHLEIVEVLLKNGADVNAQDKFGKTAFDISIDNGNEDLAEILQKLN

Further lines, the binder ahead of its results:

B2: DARPin 3G86.32 (designed binder)
chain: MRGSHHHHHHGSDLGKKLLEAARAGQDDEVRILMANGADVNALDRFGLTPLHLAAQRGHLEIVEVLLKCGADVNAADLWGQTPLHLAATAGHLEIVEVLLKYGADVNALDLIGKTPLHLTAIDGHLEIVEVLLKHGADVNAQDKFGKTAFDISIDNGNEDLAEILQKLN
koff [2]: 0.00022 s⁻¹ | Kd [3]: 5.3 nM | Kd [4]: < 5 nM

B3: DARPin 3G86.1 (designed binder)
chain: B2 chain with Y102N, L109R, L111N, K114H, T120A, I122W, D123A
Kd [1]: 0.32 nM | koff [2]: 0.000369 s⁻¹ | Kd [3]: 29 nM | Kd [4]: < 5 nM
